Data taken from patent US20240293316.

Key:
[1] = target: T1, NPD (micellar nanoparticles of PPAD, DEX-containing PPA with D-MMP peptide) (not fully specified)
T1 chain: GPLGLAGGERDG

[2] = target: T2, NPL (micellar nanoparticles of PPAL, DEX-containing PPA with L-MMP peptide) (not fully specified)
T2 chain: GPLGLAGGERDG

[3] = target: T3, NPR (micellar nanoparticles of PPAR, DEX-containing PPA with random peptide) (not fully specified)
T3 chain: GGSGSGSGWGERDGS

B1: thermolysin (protein)
chain: ITGTSTVGVGRGVLGDQKNINTTYSTYYYLQDNTRGNGIFTYDAKYRTTLPGSLWADADNQFFASYDAPAVDAHYYAGVTYDYYKNVHNRLSYDGNNAAIRSSVHYSQGYNNAFWNGSQMVYGDGDGQTFIPLSGGIDVVAHELTHAVTDYTAGLIYQNESGAINEAISDIFGTLVEFYANKNPDWEIGEDVYTPGISGDSLRSMSDPAKYGDPDHYSKRYTGTQDNGGVHINSGIINKAAYLISQGGTHYGVSVVGIGRDKLGKIFYRALTQYLTPTSNFSQLRAAAVQSATDLYGSTSQEVASVKQAFDAVGVK
B1 was tested, and the “nanoparticle cleavage experiment (TEM after thermolysin treatment, 1 µM thermolysin : 100 µM polymer, 24 hours at 37° C.)” value (“nanoparticle cleavage experiment” for short) [1] was “maintained their nanoparticle morphology”, the “nanoparticle cleavage experiment” value [2] was “underwent cleavage induced aggregation” and the “nanoparticle cleavage experiment” value [3] was “maintained their nanoparticle morphology”.
